Literature values, collected in publication PMC11658791.
Where two headings read alike, the source gives them in different places.

Tests used:
TonB (Escherichia coli) [1] = target: TonB (Escherichia coli) (UniProt P02929)
[2] = target: Colicin M (Cma) (Escherichia coli) (UniProt P05820)
TonB (Escherichia coli) [3] = target: TonB (Escherichia coli) (UniProt P02929); assay: ITC
[4] = target: FpvAI (Pseudomonas aeruginosa) (UniProt P48632)
Sequence of UniProt P48632 (P48632 44-815): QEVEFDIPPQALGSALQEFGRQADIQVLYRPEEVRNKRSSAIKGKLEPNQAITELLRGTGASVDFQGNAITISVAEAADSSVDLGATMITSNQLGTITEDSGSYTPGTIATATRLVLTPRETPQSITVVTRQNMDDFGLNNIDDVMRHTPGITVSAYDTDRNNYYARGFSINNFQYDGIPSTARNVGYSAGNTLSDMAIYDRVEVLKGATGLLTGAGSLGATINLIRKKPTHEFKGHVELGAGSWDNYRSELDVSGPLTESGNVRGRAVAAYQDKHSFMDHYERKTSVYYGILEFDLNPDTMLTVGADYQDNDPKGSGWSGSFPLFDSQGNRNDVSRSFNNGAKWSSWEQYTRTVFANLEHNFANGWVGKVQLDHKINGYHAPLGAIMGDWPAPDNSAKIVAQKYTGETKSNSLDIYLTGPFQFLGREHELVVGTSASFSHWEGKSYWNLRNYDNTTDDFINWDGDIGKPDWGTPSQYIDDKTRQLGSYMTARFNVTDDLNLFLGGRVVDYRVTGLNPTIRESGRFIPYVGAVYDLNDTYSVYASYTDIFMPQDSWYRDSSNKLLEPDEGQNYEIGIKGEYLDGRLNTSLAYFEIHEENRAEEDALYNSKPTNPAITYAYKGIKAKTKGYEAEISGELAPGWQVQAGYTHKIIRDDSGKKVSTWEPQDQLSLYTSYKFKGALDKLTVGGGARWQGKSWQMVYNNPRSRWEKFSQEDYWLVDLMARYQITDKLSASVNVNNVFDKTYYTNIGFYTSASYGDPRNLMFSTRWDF

Sequence of UniProt P02929 (P02929 whole entry): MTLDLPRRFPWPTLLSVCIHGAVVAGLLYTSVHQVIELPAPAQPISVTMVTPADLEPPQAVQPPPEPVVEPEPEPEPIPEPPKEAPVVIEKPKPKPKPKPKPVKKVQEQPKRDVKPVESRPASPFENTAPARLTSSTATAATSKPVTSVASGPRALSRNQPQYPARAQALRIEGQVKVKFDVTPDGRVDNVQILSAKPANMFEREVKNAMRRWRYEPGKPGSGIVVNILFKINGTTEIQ
Sequence of UniProt P05820 (P05820 whole entry): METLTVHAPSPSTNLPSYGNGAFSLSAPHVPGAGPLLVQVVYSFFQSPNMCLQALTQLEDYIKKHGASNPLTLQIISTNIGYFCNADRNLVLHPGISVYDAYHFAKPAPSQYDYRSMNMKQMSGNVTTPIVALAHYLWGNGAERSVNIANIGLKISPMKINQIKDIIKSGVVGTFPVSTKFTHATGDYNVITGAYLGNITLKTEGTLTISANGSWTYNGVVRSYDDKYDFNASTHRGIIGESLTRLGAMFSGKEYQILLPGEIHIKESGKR

Substance | Kd (TonB (Escherichia coli) [1]) [nM] | Kd [2] [nM] | Kd (TonB (Escherichia coli) [3]) [nM] | Kd [4] [nM]
FhuA (from UniProt P06971) | 20 | 3.5 | 200 | 
Pyocin S2 (pyoS2NTD) N-terminal domain (from UniProt Q06584) |  |  |  | 0.24
